Test results from patent US20200199241A1 (Chugai, published 2020).
Where two headings read alike, the source gives them in different places.

T1: mouse FcγRIIb (mouse, UniProt P08101 30-207, limits assumed)
T1 construct: bought; also called mFcgRIIb; mFcgR IIb
T1 sequence (looked up): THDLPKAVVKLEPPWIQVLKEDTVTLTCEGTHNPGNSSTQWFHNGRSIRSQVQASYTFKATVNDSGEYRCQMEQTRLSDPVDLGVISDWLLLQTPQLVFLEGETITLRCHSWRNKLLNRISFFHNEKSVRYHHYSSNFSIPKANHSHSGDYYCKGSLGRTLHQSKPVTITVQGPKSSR

T2: mouse FcγRIII (mouse, UniProt P08508 31-215)
T2 construct: bought; also called mFcgRIII; mFcgR III
T2 sequence (looked up): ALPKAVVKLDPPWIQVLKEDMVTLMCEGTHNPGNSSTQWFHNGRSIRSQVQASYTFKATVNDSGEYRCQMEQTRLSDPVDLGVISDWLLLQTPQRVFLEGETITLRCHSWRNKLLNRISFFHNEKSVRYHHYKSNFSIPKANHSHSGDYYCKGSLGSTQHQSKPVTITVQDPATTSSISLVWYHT

T3: mouse FcγRIV (mouse, UniProt A0A0B4J1G0 21-203)
T3 construct: bought; also called mFcgRIV; mFcgR IV; the vendor's purification tag not given
T3 sequence: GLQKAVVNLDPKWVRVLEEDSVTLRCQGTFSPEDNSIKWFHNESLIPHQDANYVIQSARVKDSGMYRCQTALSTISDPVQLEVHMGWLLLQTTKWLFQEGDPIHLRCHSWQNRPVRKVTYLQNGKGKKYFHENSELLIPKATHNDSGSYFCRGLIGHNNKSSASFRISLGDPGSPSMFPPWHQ

T4: mouse FcγRI (mouse, UniProt P26151 25-297)
T4 construct: bought; also called mFcgRI; mFcgR 1
T4 sequence (looked up): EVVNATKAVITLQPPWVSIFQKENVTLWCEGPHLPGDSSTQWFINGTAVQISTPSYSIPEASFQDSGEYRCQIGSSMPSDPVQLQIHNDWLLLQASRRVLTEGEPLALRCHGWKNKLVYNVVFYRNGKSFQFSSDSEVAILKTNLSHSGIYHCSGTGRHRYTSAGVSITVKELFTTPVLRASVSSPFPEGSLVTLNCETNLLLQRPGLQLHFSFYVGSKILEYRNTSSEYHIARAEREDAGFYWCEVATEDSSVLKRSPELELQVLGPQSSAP

T5: human FcγRIIb (human, UniProt P31994 43-217, limits assumed)
T5 construct: also called hFcgRIIb; FcγIIB
T5 sequence: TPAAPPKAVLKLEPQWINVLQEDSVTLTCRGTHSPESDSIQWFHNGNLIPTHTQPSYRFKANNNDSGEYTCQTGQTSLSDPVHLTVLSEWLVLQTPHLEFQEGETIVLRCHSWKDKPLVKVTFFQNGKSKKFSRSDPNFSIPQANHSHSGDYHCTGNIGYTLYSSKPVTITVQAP


Assays:
[1] = target: T6, human FcRn (soluble human FcRn complexed with β2-microglobulin) (human, UniProt P61769 21-119, limits assumed); test: SPR, antibody captured by Protein L, human FcRn as analyte, pH 7.0, 25 C
T6 construct: also called hFcRn

mouse FcγRIIb = target: T1, mouse FcγRIIb; test: SPR, antibody captured by Protein L, mouse FcγR as analyte, pH 7.4, 25 C
mouse FcγRIII = target: T2, mouse FcγRIII; test: as above
mouse FcγRIV = target: T3, mouse FcγRIV; test: as above
[2] = target: T6, human FcRn (soluble human FcRn …); test: SPR, antibody captured by Protein L, human FcRn as analyte, pH 7.0, 25 C; remark: listed apart in the source
human FcγRIa [3] = target: T7, human FcγRIa (human, UniProt P12314 16-292, limits assumed); test: SPR, antibody captured by Protein L, human FcγR as analyte, pH 7.4, 25 C
T7 construct: also called hFcgRIa; hFcgRI
T7 sequence (P12314 16-292 limits assumed): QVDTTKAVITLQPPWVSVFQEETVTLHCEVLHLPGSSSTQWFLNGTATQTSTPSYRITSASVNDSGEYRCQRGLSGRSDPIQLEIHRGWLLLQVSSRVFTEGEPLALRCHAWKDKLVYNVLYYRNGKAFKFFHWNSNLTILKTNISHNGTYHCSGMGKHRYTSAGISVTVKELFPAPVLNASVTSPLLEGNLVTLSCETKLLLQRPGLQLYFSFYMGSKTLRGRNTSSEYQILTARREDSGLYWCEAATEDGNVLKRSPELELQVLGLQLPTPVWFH

mouse FcγRI = target: T4, mouse FcγRI; test: SPR, antibody captured by Protein L, mouse FcγR as analyte, pH 7.4, 25 C
[4] = target: T6, human FcRn (soluble human FcRn …); test: SPR, antibody captured by Protein L, human FcRn as analyte, pH 7.0, 25 C; remark: listed apart in the source
human FcγRIIb = target: T5, human FcγRIIb; test: SPR, antibody captured by Protein L, human FcγR as analyte, pH 7.4, 25 C
human FcγRIa [5] = target: T7, human FcγRIa; test: as above; remark: listed apart in the source

| Kd [1] [nM] | BINDING AMOUNT (RU) (mouse FcγRIIb) | BINDING AMOUNT (RU) (mouse FcγRIII) | BINDING AMOUNT (RU) (mouse FcγRIV) | Kd [2] [nM] | BINDING AMOUNT (RU) (human FcγRIa [3]) | BINDING AMOUNT (RU) (mouse FcγRI) | Kd [4] [nM] | BINDING AMOUNT (RU) (human FcγRIIb) | BINDING AMOUNT (RU) (human FcγRIa [5]) | Binder |
| --- | --- | --- | --- | --- | --- | --- | --- | --- | --- | --- |
| 36 | -1.8 | 46.6 | 108 | 36 | 335 |  |  |  |  | VH3/L(WT)-IgG1-F140 (VH3-IgG1-F140 heavy chain, L(WT)-CK light chain) (antibody, S239K/M252Y/V308P/N434Y; copies: 2 + 2) heavy: QVQLQESGPGLVKPSETLSLTCAVSGHSISHDHAWSWVRQPPGEGLEWIGFISYSGITNYNPSLQGRVTISRDNSKNTLYLQMNSLRAEDTAVYYCARSLARTTAMDYWGEGTLVTVSSASTKGPSVFPLAPSSKSTSGGTAALGCLVKDYFPEPVTVSWNSGALTSGVHTFPAVLQSSGLYSLSSVVTVPSSSLGTQTYICNVNHKPSNTKVDKKVEPKSCDKTHTCPPCPAPELLGGPKVFLFPPKPKDTLYISRTPEVTCVVVDVSHEDPEVKFNWYVDGVEVHNAKTKPREEQYNSTYRVVSVLTPLHQDWLNGKEYKCKVSNKALPAPIEKTISKAKGQPREPQVYTLPPSRDELTKNQVSLTCLVKGFYPSDIAVEWESNGQPENNYKTTPPVLDSDGSFFLYSKLTVDKSRWQQGNVFSCSVMHEALHYHYTQKSLSLSP light: not shown |
| 150 | 129 | 276 | 243 |  |  | 315 |  |  |  | antibody with VH3-IgG1-F157 heavy chain and L(WT)-CK light chain (antibody, P257A/V308P/M428L/N434Y; also called 1gG1-F157; copies: 2 + 2) heavy: QVQLQESGPGLVKPSETLSLTCAVSGHSISHDHAWSWVRQPPGEGLEWIGFISYSGITNYNPSLQGRVTISRDNSKNTLYLQMNSLRAEDTAVYYCARSLARTTAMDYWGEGTLVTVSSASTKGPSVFPLAPSSKSTSGGTAALGCLVKDYFPEPVTVSWNSGALTSGVHTFPAVLQSSGLYSLSSVVTVPSSSLGTQTYICNVNHKPSNTKVDKKVEPKSCDKTHTCPPCPAPELLGGPSVFLFPPKPKDTLMISRTAEVTCVVVDVSHEDPEVKFNWYVDGVEVHNAKTKPREEQYNSTYRVVSVLTPLHQDWLNGKEYKCKVSNKALPAPIEKTISKAKGQPREPQVYTLPPSRDELTKNQVSLTCLVKGFYPSDIAVEWESNGQPENNYKTTPPVLDSDGSFFLYSKLTVDKSRWQQGNVFSCSVLHEALHYHYTQKSLSLSP light: not shown |
|  |  |  |  |  |  |  | 23 | -0.3 | 164 | VH3/L(WT)-IgG1-F699 (antibody, name in EU numbering, copies: 2 + 2) heavy: QVQLQESGPGLVKPSETLSLTCAVSGHSISHDHAWSWVRQPPGEGLEWIGFISYSGITNYNPSLQGRVTISRDNSKNTLYLQMNSLRAEDTAVYYCARSLARTTAMDYWGEGTLVTVSSASTKGPSVFPLAPSSKSTSGGTAALGCLVKDYFPEPVTVSWNSGALTSGVHTFPAVLQSSGLYSLSSVVTVPSSSLGTQTYICNVNHKPSNTKVDKKVEPKSCDKTHTCPPCPAPELLGGPKVFLFPPKPKDTLYISRTPEVTCVVVDVSHEDPEVKFNWYVDGVEVHEAKTKPREEQYNSTYRVVSVLQVLHADWLNGKEYKCKVSNKALPAPIEKTISKAKGQPREPQVYTLPPSRDELTKNQVSLTCLVKGFYPSDIAVEWESNGQPENNYKTTPPVLDSDGSFFLYSKLTVDKSRWQQGNVFSCSVMHEALHYHYTQKSLSLSP light: not shown |
